Experimental data reported in patent US20220073586A1 (EUTILEX, published 2022).
Changes are numbered by the printed parent chain. One block for each binder: values may come before it.

Legend:
[1] = biological target: PD-L1 molecules (Sino, Cat #10084-H08H) (UniProt Q9NZQ7 19-238); test: SPR, Biacore T200; PD-1 Fc fusion fixed on CM5 chip, PD-L1 injected at 3.125-100 nM
[2] = biological target: T1, PD-L2 antigen (coated on 96-well immunoplate) (UniProt Q9BQ51 20-220, limits assumed); test: single antigen ELISA, PD-L2 coated at 1 ug/mL, detection with anti-hFc-HRP
T1 construct: also called antigen PD-L2
T1 sequence (looked up): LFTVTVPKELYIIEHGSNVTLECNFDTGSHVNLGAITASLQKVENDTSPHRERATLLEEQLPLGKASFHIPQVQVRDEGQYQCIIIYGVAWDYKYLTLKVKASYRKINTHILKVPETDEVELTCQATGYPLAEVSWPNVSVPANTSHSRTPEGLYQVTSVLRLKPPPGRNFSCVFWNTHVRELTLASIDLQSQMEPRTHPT
Description: (§1) Briefly, after coating PD-L1 antigen or PD-L2 antigen at a concentration of 1 μg/ml in a 96-well immunoplate at 4° C. overnight, 150 μl of 1× assay buffer (Biolegend) was treated for 1 hour to block non-specific binding. […] The treatment concentration on the antigen PD-L1-coated plate was serially diluted from 30 μg/mL to 3 times to make a total of 15 points, The treatment concentration on the antigen PD-L2 coated plate was serially diluted 3 times from 100 μg/mL to a total of 12 points. Anti-hFc-HRP (Biolegend) was treated with 100 μl at a concentration of 0.4 μg/mL. After incubation for 1 hour, color was developed with TMB, and after 3 minutes, the reaction was stopped using sulfuric acid. Washing was performed 3 times using washing buffer in all processes except for the process after TMB treatment, All processes except for the antigen coating process were carried out at room temperature.

[3] = biological target: T2, PD-L1 antigen (coated on 96-well immunoplate) (UniProt Q9NZQ7 19-238, limits assumed); test: single antigen ELISA, PD-L1 coated at 1 ug/mL, detection with anti-hFc-HRP
T2 construct: also called antigen PD-L1
Description: as §1

Sequence of PD-L1 molecules (Sino, Cat #10084-H08H) (Q9NZQ7 19-238 limits assumed): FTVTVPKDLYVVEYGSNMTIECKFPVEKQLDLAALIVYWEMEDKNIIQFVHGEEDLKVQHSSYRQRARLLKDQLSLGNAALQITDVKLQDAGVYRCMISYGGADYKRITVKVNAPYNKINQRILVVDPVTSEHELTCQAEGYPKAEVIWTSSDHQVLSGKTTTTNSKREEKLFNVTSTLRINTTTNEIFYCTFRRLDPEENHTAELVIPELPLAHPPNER
T2 sequence (Q9NZQ7 19-238 limits assumed): as above

Kd [1]: 1.04 nM | koff [1]: 0.00182 s⁻¹ | kon [1]: 1.76e+06 M⁻¹ s⁻¹
B1: PD-1.m8 Fc fusion protein (Fc fusion)
chain: FLESPDRPWNAPTFSPALLLVAEGDNATFTCSFSNASESFHVVWHRESPSGQTDTLAAFPEDRSQPGQDHRFRVTRLPNGRDFHMSVVRAQRNDSGTYVCGVISLAPKIQIKESLGAELRVTERRAEVPTAHPSPSPRPAGQFQTLVVGGGGGSSNTKVDKRVEPKSCDKTHTCPPCPAPPVAGPSVFLFPPKPKDTLMISRTPEVTCVVVDVSHEDPEVQFNWYVDGVEVHNAKTKPREEQFNSTFRVVSVLTVVHQDWLNGKEYKCKVSNKGLPAPIEKTISKTKGQPREPQVYTLPPSREEMTKNQVSLTCLVKGFYPSDIAVEWESNGQPENNYKTTPPMLDSDGSFFLYSKLTVDKSRWQQGNVFSCSVMHEALHNHYTQKSLSLSPGK

Kd [1]: 1.1 nM | koff [1]: 0.00216 s⁻¹ | kon [1]: 1.96e+06 M⁻¹ s⁻¹
B2: PD-1.m7 Fc fusion protein (Fc fusion)
chain: B1 chain with H70C, Q91R

binding result [2]: no binding (tested: 100 ug/mL) | Kd [1]: 0.714 nM | koff [1]: 0.0013 s⁻¹ | kon [1]: 1.82e+06 M⁻¹ s⁻¹ | EC50 (read off the curve) [3]: ~0.03 µg/mL
B3: euPD-1 Fc fusion protein (Fc fusion)
chain: B1 chain with G116R
